Patent US20170226172A1 (NEW YORK UNIVERSITY, published 2017)
Like-named read-outs stand apart in the source and are kept apart here. Values belong to the binder of their own block, whether it stands above or below them.

Experiments:
[1] = biological target: T1, alpha-Klotho with endogenous FGFRs on HEK293-alphaKlotho cells; experiment: FACS competition on HEK293-alphaKlotho cells against a sub-saturating dose of FGF23
Description: IC50 values were derived from the resulting inhibition binding curves (FIG. 7).

[2] = biological target: T1, alpha-Klotho with endogenous FGFRs on …; experiment: cell-based or functional assay
[3] = biological target: FGFR1c and alpha-klotho, human, on BAF3 cells (Example 7) (human, UniProt P11362 22-822; Q9UEF7 34-1012); experiment: cell-based or functional assay
[4] = biological target: T2, FGFR1c/alpha-klotho on BaF3 cells (Example 12) (Homo sapiens (Human), UniProt P11362 22-822; Q9UEF7 34-1012); experiment: FACS competitive binding on BaF3 cells expressing FGFR1c and Klotho, against 0.2 ug/mL FGF-23; drug 0 to 2430 nM; the number stands beside the legend entry under the title 'FACS CO… BINDING IC50', the unit is that of the axis (nM DRUG)
T2 construct: also called BaF3 cells expressing FGFR1c and αklotho; BAF3 lines engineered to express FGFR1c/αklotho

[5] = biological target: T1, alpha-Klotho with endogenous FGFRs on …; experiment: FACS competition on HEK293-alphaKlotho cells: peptide 0.01 to about 1000 nM against 0.2 ug/mL full-length human FGF23, geo mean of PE intensity
[6] = biological target: T3, FGFR4/alpha-klotho on BaF3 cells (Example 12) (Homo sapiens (Human), UniProt P22455 22-802; Q9UEF7 34-1012); experiment: FACS competitive binding on BaF3 cells expressing FGFR4 and Klotho, against 0.2 ug/mL FGF-23; drug 0 to 2430 nM; the number stands beside the legend entry under the title 'FACS CO… BINDING IC50', the unit is that of the axis (nM DRUG)
T3 construct: also called BaF3 cells expressing FGFR4 and αklotho; BaF3-FGFR4/αklotho cells

[7] = biological target: T1, alpha-Klotho with endogenous FGFRs on …; experiment: FACS competition on HEK293-alphaKlotho cells: peptide 0.01 to about 1000 nM against 0.2 ug/mL full-length human FGF23, geo mean of PE intensity; remark: listed apart in the source
[8] = biological target: T1, alpha-Klotho with endogenous FGFRs on …; experiment: as above; remark: listed apart in the source
[9] = biological target: T4, FGFR1c/alpha-klotho receptor complex, murine, pre-formed (SPR analyte) (mouse, UniProt P16092 22-376; O35082 35-982); experiment: SPR competition; full-length murine FGF23 on the Biacore chip, set amount of pre-formed receptor complex with increasing c-tail construct
T4 construct: also called pre-formed receptor complex (mouse)
T4 sequence (looked up) 1: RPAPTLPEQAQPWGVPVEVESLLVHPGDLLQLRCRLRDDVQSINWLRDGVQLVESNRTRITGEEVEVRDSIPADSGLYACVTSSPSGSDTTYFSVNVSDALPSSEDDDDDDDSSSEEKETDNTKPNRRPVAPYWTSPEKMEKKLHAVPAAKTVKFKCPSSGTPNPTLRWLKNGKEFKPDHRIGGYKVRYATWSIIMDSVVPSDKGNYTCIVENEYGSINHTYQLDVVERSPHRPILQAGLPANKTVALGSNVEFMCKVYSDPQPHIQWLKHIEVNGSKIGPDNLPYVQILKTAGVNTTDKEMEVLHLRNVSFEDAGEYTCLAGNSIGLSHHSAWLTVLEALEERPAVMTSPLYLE
T4 sequence (looked up) 2: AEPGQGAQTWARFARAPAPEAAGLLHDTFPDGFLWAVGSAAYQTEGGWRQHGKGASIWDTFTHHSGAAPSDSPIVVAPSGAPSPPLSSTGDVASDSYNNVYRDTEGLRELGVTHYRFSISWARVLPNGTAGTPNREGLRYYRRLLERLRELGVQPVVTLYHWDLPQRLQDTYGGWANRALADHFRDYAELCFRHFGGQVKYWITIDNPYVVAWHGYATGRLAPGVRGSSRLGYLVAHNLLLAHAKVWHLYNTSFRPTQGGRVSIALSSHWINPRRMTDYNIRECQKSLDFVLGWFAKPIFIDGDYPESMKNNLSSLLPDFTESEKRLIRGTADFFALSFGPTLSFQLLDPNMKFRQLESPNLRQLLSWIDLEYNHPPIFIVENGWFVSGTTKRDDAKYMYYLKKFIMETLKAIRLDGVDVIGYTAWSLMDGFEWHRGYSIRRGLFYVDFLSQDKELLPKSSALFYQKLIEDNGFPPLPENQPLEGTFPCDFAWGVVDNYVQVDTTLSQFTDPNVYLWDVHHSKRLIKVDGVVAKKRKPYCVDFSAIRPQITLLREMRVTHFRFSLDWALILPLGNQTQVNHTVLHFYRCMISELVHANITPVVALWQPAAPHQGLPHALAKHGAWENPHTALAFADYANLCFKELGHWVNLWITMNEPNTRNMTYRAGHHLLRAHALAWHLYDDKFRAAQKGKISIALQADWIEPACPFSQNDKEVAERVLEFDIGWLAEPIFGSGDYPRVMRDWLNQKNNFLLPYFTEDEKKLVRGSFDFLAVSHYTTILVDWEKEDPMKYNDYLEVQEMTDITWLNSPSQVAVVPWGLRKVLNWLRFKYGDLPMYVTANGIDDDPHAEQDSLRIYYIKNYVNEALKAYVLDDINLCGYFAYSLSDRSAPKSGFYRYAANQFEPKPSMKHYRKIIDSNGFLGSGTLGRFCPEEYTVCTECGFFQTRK
Protocol: The potency of the human and murine constructs were determined via both competitive inhibition using SPR and cellular viability assays (Cell Titer Glo). […] Experiments were done in a species specific manner meaning that all components were from a single species, either mouse or human. For the functional experiments, BAF3 cells were engineered to stably express FGFR1c and α-klotho. BAF3 cells are dependent on IL-3 for growth. […] Once again this was done in a species specific manner.

[10] = biological target: FGFR1c and alpha-klotho, murine, on BAF3 cells (Example 7) (mouse, UniProt P16092 22-822; O35082 35-1014); experiment: cell-based or functional assay

B1: Human Wild Type FGF23 c-tail Fc (FGF23-c-tail-FC1), mature (Fc fusion)
chain: EPKSCDKTHTCPPCPAPEAAGAPSVFLFPPKPKDTLMISRTPEVTCVVVDVSHEDPEVKFNWYVDGVEVHNAKTKPREEQYNSTYRVVSVLTVLHQDWLNGKEYKCKVSNKALPAPIEKTISKAKGQPREPQVYTLPPSREEMTKNQVSLTCLVKGFYPSDIAVEWESNGQPENNYKTTPPVLDSDGSFFLYSKLTVDKSRWQQGNVFSCSVMHEALHNHYTQKSLSLSPGGGGGSSAEDDSERDPLNVLKPRARMTPAPASCSQELPSAEDNSPMASDPLGVVRGGRVNTHAGGTGPEGCRPFAKFI
notes: Made in CHO cells; also called HuFGF23 c-tail Fc; huFGF23-Fc
IC50 (read off the curve) [1]: ~10 nM | IC50, inhibition of FGF23-mediated Egr1-luciferase activity in HEK293 cells expressing alpha-klotho (after assay optimization) [2]: 21.5 nM | IC50, inhibition of FGF23-mediated Egr1-luciferase activity in HEK293 cells expressing alpha-klotho (prior to assay optimization) [2]: 202 nM | IC50, cellular viability (Cell Titer Glo) of BAF3 cells expressing FGFR1c and alpha-klotho kept alive by FGF23 [3]: 53 nM | IC50 [4]: 20.4 nM

B3: Human FGF23 c-tail 69 (-3 amino acid construct) peptide (peptide)
peptide: SAEDDSERDPLNVLKPRARMTPAPASCSQELPSAEDNSPMASDPLGVVRGGRVNTHAGGTGPEGCRPFA
notes: also called truncated FGF23 c-tail peptide, 69 amino acids
IC50 [7]: 2.8 nM

Continued, in another order:

IC50 [5]: 2.9 nM | IC50 (read off the curve) [1]: ~20 nM | IC50 [6]: 23 nM | IC50, inhibition of FGF23 signaling (Egr1-luciferase) in HEK293 cells expressing alpha-klotho (prior to assay optimization) [2]: 81.9 nM | IC50 [4]: 15.4 nM
B2: Wild Type Human FGF23 c-tail 180-251 (72 amino acid peptide) (peptide)
peptide: SAEDDSERDPLNVLKPRARMTPAPASCSQELPSAEDNSPMASDPLGVVRGGRVNTHAGGTGPEGCRPFAKFI
notes: also called FGF23 c-tail peptide; unconjugated FGF23 c-tail peptide

IC50 [8]: 2.4 nM
B4: Human FGF23 c-tail 70 (-2 amino acid construct) peptide (peptide)
peptide: SAEDDSERDPLNVLKPRARMTPAPASCSQELPSAEDNSPMASDPLGVVRGGRVNTHAGGTGPEGCRPFAK
notes: also called truncated FGF23 c-tail peptide, 70 amino acids

Ki [9]: 10 nM
B5: Wild Type Murine FGF23 c-tail Fc (muFGF23-c-tail-FC1), mature (Fc fusion)
chain: VPRDAGCKPCICTVPPVSSVFIFPPKPKDVLTITLTPKVTCVVVDISKDDPEVQFSWFVDDVEVHTAQTQPREEQFNSTFRSVSELPIMHQDWLNGKAFACAVNSAAFPAPIEKTISKTKGRPKAPQVYTIPPPKEQMAKDKVSLTCMITDFFPEDITVEWQWNGQPAENYKNTQPIMDTDGSYFVYSKLNVQKSNWEAGNTFTCSVLHEGLHNHHTEKSLSHSPGGGGGSSAEDPPERDPLNVLKPRPRATPVPVSCSRELPSAEEGGPAASDPLGVLRRGRGDARGGAGGADRCRPFPRFV
notes: also called Murine FGF23-Fc; surrogate molecule
IC50, cellular viability (Cell Titer Glo) of BAF3 cells expressing FGFR1c and alpha-klotho kept alive by FGF23 [10]: 35 nM
